Measurements as given in paper PMC4643883.
Where two headings read alike, the source gives them in different places.

What was measured:
[1] = target: Drosophila Telomere Loss / Modigliani (DTL/Moi), D. melanogaster (Drosophila melanogaster) (UniProt B7Z0L8); assay: SEC; combined heparin-sepharose fractions of co-expressed Ver and DTL/Moi; Superdex 200 10/300 GL; 20 mM Tris pH 7.5, 100 mM NaCl
[2] = target: Drosophila Telomere Loss / Modigliani (DTL/Moi), D. melanogaster (Drosophila melanogaster) (UniProt B7Z0L8); assay: as above; remark: listed apart in the source

UniProt B7Z0L8, sequence (B7Z0L8 whole entry): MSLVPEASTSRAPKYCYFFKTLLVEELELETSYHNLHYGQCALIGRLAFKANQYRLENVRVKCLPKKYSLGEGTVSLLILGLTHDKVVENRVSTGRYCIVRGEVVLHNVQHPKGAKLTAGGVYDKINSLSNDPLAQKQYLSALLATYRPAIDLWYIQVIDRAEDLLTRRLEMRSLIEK

“D. yakuba Verrocchio (Ver) (natural protein)” showed a stoichiometry N [1] of 1.

B1: Verrocchio (Ver), D. melanogaster (natural protein)
chain: MDFNQSFEDIESQLDNFVIRKNQQSEKSTGKCGPEVHDNVPLTISQIERATQDPENENVFITDDVHPIHFCTCIIYAFVTGNGTHNESFMKFMIDDGTGSLEASITKKPFNGRVISSLYSEASSLASSEAYKSIAVSMMRLLQVSMEYIDPTRISRGHSLFLRGRPNRFRGKMGLDAFQFFIDSGRSRNMEIGFVDYLTDWQRRHKTMQNTTNK
B1 was tested, and the stoichiometry N [2] was 1.
